Data as given in patent US20110038881A1, “PROGNOSTIC ASSAY FOR DETERMINING T CELL RESPONSE TO HLA ANTIGENS AND USE THEREOF IN FIELD OF TISSUE TRANSPLANTATION” (priority 2007, published 2011).

Tests used:
Assay in all cases: competition binding
Conditions in all cases: modification not given
HLA-DRB5*0101 (human) = target: HLA-DRB5*0101 (human)
HLA-DRB1*0401 (human) = target: HLA-DRB1*0401 (human)
HLA-DRB1*0101 (human) = target: HLA-DRB1*0101 (human)
HLA-DRB1*0701 (human) = target: HLA-DRB1*0701 (human)
HLA-DRB1*1501 (human) = target: HLA-DRB1*1501 (human)
HLA-DRB1*1301 (human) = target: HLA-DRB1*1301 (human)
HLA-DRB1*0301 (human) = target: HLA-DRB1*0301 (human)
HLA-DRB3*0101 (human) = target: HLA-DRB3*0101 (human)
HLA-DRB1*1101 (human) = target: HLA-DRB1*1101 (human)
HLA-DRB4*0101 (human) = target: HLA-DRB4*0101 (human)

| Binder | IC50 (HLA-DRB5*0101 (human)) [µM] | IC50 (HLA-DRB1*0401 (human)) [µM] | IC50 (HLA-DRB1*0101 (human)) [µM] | IC50 (HLA-DRB1*0701 (human)) [µM] | IC50 (HLA-DRB1*1501 (human)) [µM] | IC50 (HLA-DRB1*1301 (human)) [µM] | IC50 (HLA-DRB1*0301 (human)) [µM] | IC50 (HLA-DRB3*0101 (human)) [µM] | IC50 (HLA-DRB1*1101 (human)) [µM] | IC50 (HLA-DRB4*0101 (human)) [µM] |
| --- | --- | --- | --- | --- | --- | --- | --- | --- | --- | --- |
| HTVQRMYGCDVGSDW [p17*] | 12 | 2.12 | 0.035 | 1.59 | 2.83 | > 100 | 5.61 | 0.529 | 6.48 | – |
| TELVETRPAGDGTFQ [p44] | – | 70.4 | 4.47 | 2.16 | > 100 | > 100 | > 100 | – | 8.75 | – |
| RAYLEGTCVEWLRRY [p33] | – | 9.17 | 0.025 | 0.637 | 4.74 | 13.4 | 34.9 | 8.94 | 0.872 | 12.6 |
| HKWEAAHVAEQLRAY [p30] | – | 0.118 | 0.029 | 0.401 | 0.938 | > 100 | 16.5 | 0.806 | 0.379 | – |
| RRYLENGKETLQRTD [p36] | – | 28 | 0.704 | > 100 | 69 | 11.6 | > 100 | 4.85 | 0.738 | – |
| GTFQKWAAVVVPSGQ [p45*] | – | 0.099 | 0.004 | – | 0.474 | > 100 | > 100 | 0.045 | 0.34 | – |
| YAYDGKDYIALKEDL [p24] | – | 3.87 | 0.035 | 4.47 | > 100 | > 100 | > 100 | > 100 | 0.184 | > 100 |
| FQKWAAVVVPSGQEQR [p46*] | – | 0.326 | 0.218 | 0.7 | > 100 | > 100 | 7.35 | 1.73 | 0.626 | – |
| LTLRWEPSSQPTIPI [p51*] | – | 0.497 | 0.525 | 0.072 | 2.44 | > 100 | > 100 | 29 | > 100 | 26 |
| IPIVGIIAGLVLFGA [p53*] | – | > 100 | 0.026 | 0.179 | 0.283 | 1.37 | – | – | > 100 | – |
| THMTHHAVSDHEATL [p38] | – | > 100 | 8 | 53.7 | > 100 | > 100 | > 100 | – | > 100 | – |
| EGLPKPLTLRWEPSS [p49] | – | 0.497 | 0.497 | 71 | 50.2 | > 100 | > 100 | 4.69 | 2.06 | 33.9 |
| EQLRAYLEGTCVEWL [p32] | – | 1.73 | 0.063 | 0.149 | 0.267 | > 100 | 1.84 | 1.09 | 0.424 | – |
| EDLRSWTAADMAAQT [p27] | – | > 100 | > 100 | > 100 | 0.648 | > 100 | > 100 | 1.88 | > 100 | – |
| AHVAEQLRAYLEGTC [p31] | – | > 100 | 0.629 | > 100 | 0.026 | 8.06 | > 100 | – | 3.34 | – |
| AAVVVPSGQEQRYTC [p47] | – | > 100 | 2.24 | 42.2 | > 100 | 7.48 | 0.98 | 1.53 | 68.9 | – |
| LTWQRDGEDQTQDTE [p43] | 4.1 | > 100 | > 100 | > 100 | > 100 | > 100 | 97.5 | – | > 100 | – |

Other lines, results leading:

| IC50 (HLA-DRB5*0101 (human)) [µM] | IC50 (HLA-DRB1*0401 (human)) [µM] | IC50 (HLA-DRB1*0101 (human)) [µM] | IC50 (HLA-DRB1*0701 (human)) [µM] | IC50 (HLA-DRB1*1501 (human)) [µM] | IC50 (HLA-DRB1*1301 (human)) [µM] | IC50 (HLA-DRB1*0301 (human)) [µM] | IC50 (HLA-DRB3*0101 (human)) [µM] | IC50 (HLA-DRB1*1101 (human)) [µM] | IC50 (HLA-DRB4*0101 (human)) [µM] | Binder |
| --- | --- | --- | --- | --- | --- | --- | --- | --- | --- | --- |
| – | > 100 | 40 | > 100 | > 100 | 3.84 | > 100 | 0.033 | > 100 | – | ADMAAQTTKHKWEAA [p29] |
| – | 0.917 | 0.05 | > 100 | > 100 | > 100 | > 100 | – | 2.35 | – | LSFYPAEITLTWQRD [p41] |
| 40.5 | 1.53 | 0.067 | 12.8 | > 100 | > 100 | > 100 | 1 | 10.5 | – | RSWTAADMAAQTTKH [p28] |
| – | > 100 | 0.598 | > 100 | 0.245 | 8.06 | > 100 | – | 0.251 | – | VEWLRRYLENGKETL [p35*] |
| – | 57.4 | 1.92 | 29.5 | > 100 | > 100 | > 100 | 20.5 | 0.693 | – | EQRYTCHVQHEGLPKP [p48] |
| – | > 100 | > 100 | > 100 | 22.2 | 5 | > 100 | 58.1 | 0.245 | – | TCVEWLRRYLENGKE [p34*] |
| – | 60 | 2 | 3.13 | > 100 | > 100 | > 100 | 27.6 | > 100 | – | ETLQRTDAPKTHMTH [p37] |
